# According to patent US20210023094A1 (PSMA DEVELOPMENT, published 2021):
# Key:
# [1] = target: T1, prostate-specific membrane antigen (PSMA), on cells (3T3-PSMA, C4-2, LNCaP) (Homo sapiens (Human), UniProt Q04609 1-750); assay: cell-based or functional assay
# [2] = target: T1, prostate-specific membrane antigen …; assay: cell-based or functional assay; remark: listed apart in the source
# T1 sequence (Q04609 whole entry): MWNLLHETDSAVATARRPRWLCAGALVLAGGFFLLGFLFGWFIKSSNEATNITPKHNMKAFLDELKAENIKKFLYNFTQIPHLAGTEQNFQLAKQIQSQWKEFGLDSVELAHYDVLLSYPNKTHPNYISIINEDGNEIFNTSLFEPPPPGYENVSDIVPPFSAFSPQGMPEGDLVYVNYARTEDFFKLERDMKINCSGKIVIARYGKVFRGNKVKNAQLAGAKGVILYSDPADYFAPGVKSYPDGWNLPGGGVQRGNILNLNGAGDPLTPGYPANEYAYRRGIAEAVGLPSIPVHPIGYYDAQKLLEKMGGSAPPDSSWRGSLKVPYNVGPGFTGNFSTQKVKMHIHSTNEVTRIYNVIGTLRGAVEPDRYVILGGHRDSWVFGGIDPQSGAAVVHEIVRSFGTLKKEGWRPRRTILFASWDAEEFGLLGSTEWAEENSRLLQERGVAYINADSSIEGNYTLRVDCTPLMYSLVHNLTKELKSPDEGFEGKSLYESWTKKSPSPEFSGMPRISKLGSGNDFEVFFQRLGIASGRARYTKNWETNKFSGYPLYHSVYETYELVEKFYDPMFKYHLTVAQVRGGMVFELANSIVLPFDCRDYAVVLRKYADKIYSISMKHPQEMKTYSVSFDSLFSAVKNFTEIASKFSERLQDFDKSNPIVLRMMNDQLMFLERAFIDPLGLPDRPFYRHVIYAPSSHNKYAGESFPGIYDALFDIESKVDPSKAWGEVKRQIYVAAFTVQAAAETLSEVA
Binder,"in vitro cytotoxicity IC50 on 3T3-PSMA cells (Alamar Blue, 4 days) [1]","in vitro cytotoxicity IC50 on C4-2 cells (Alamar Blue, 4 days) [1]","in vitro cytotoxicity IC50 on LNCaP cells (Alamar Blue, 4 days) [1]","in vitro potency IC50 on C4-2 cells (Alamar Blue, 4 days) [2]"
"PSMA ADC (AB-PG1-XG1-006 conjugated to maleimidocaproyl-valine-citrulline-p-aminobenzylcarbamate-monomethyl auristatin E), Example 1 (antibody, V domains shown, vcMMAE on cysteine thiols of reduced disulfides; 3.0-3.5 drugs per mAb in total) VH: QVQLVESGGGVVQPGRSLRLSCAASGFAFSRYGMHWVRQAPGKGLEWVAVIWYDGSNKYYADSVKGRFTISRDNSKNTQYLQMNSLRAEDTAVYYCARGGDFLYYYYYGMDVWGQGTTVTVSS VL: DIQMTQSPSSLSASVGDRVTITCRASQGISNYLAWYQQKTGKVPKFLIYEASTLQSGVPSRFSGGGSGTDFTLTISSLQPEDVATYYCQNYNSAPFTFGPGTKVDIK",0.208 nM,0.065 nM,0.083 nM,–
"PSMA mAb vcMMAF (conjugate 699028B), Example 2 (antibody, V domains shown, vcMMAF via thioether on interchain cysteine thiols; 4.4 drugs per mAb in total) VH: QVQLVESGGGVVQPGRSLRLSCAASGFAFSRYGMHWVRQAPGKGLEWVAVIWYDGSNKYYADSVKGRFTISRDNSKNTQYLQMNSLRAEDTAVYYCARGGDFLYYYYYGMDVWGQGTTVTVSS VL: DIQMTQSPSSLSASVGDRVTITCRASQGISNYLAWYQQKTGKVPKFLIYEASTLQSGVPSRFSGGGSGTDFTLTISSLQPEDVATYYCQNYNSAPFTFGPGTKVDIK",–,–,–,0.011 nM
"PSMA mAb vcMMAE (conjugate 699028A), Example 2 (antibody, V domains shown, vcMMAE via thioether on interchain cysteine thiols; 4.3 drugs per mAb in total) VH: QVQLVESGGGVVQPGRSLRLSCAASGFAFSRYGMHWVRQAPGKGLEWVAVIWYDGSNKYYADSVKGRFTISRDNSKNTQYLQMNSLRAEDTAVYYCARGGDFLYYYYYGMDVWGQGTTVTVSS VL: DIQMTQSPSSLSASVGDRVTITCRASQGISNYLAWYQQKTGKVPKFLIYEASTLQSGVPSRFSGGGSGTDFTLTISSLQPEDVATYYCQNYNSAPFTFGPGTKVDIK",–,–,–,0.06 nM
"PSMA mAb mcMMAF (conjugate 699028C), Example 2 (antibody, V domains shown, mcMMAF via thioether on interchain cysteine thiols; 4.4 drugs per mAb in total) VH: QVQLVESGGGVVQPGRSLRLSCAASGFAFSRYGMHWVRQAPGKGLEWVAVIWYDGSNKYYADSVKGRFTISRDNSKNTQYLQMNSLRAEDTAVYYCARGGDFLYYYYYGMDVWGQGTTVTVSS VL: DIQMTQSPSSLSASVGDRVTITCRASQGISNYLAWYQQKTGKVPKFLIYEASTLQSGVPSRFSGGGSGTDFTLTISSLQPEDVATYYCQNYNSAPFTFGPGTKVDIK",–,–,–,0.042 nM
